Source: US20250171534A1 (D2M BIOTHERAPEUTICS, published 2025)
Read-outs that look alike come from different tables or passages of the source.

Key:
[1] = biological target: T1, LILRA6 expressed on cells (human, UniProt Q6PI73 24-481); assay: flow cytometry on 293T cells transiently expressing LILRA6, APC anti-human Fc; gMFI as fold to IgG staining
T1 construct: whole, on cells; GFP-tagged; also called human LILRA6; CHO-LILRA6
Description: (§1) The antibody binding signals were measured by flow cytometry with geometric MFI (gMFI). […] IgG1 is an isotype control (IgG).
(§2) The APC signals in GFP+ cells were quantified by flow cytometry.

[2] = biological target: T2, human LILRB1 expressed on cells (human, UniProt Q8NHL6 24-650); assay: flow cytometry, CHO-LILRB1 cells
T2 construct: In 293T cells it was expressed from pCMV3-LILRB1-GFP; also called CHO-LILRB1; Jurkat-LILRB1
Description: IgG1 is an isotype control (IgG).
(§3) Specifically, 50 μL CHO-LILRB1 or CHO-LILRB2 cells (4×10⁴ cells) were added to each well of a 96-well U-bottom plate. […] After an incubation for 30 minutes, the plate was centrifuged and cells were washed with PBS 3 times. […] After mixing for 30 minutes at room temperature, cells were washed with PBS twice.
(§4) EC50 values (shown in the left panel of FIG. 7C) were calculated based on the non-linear fitting curves by GraphPad Prism software. […] EC50 values (shown in right panel of FIG. 7C) were calculated based on the non-linear fitting curves by GraphPad Prism software.

[3] = biological target: T3, LILRA5 expressed on 293T cells (UniProt A6NI73 42-299, limits assumed); assay: flow cytometry on 293T cells transiently expressing LILRA5, APC anti-human Fc; gMFI as fold to IgG staining
T3 construct: whole, on cells; GFP-tagged, transient
Description: as §1, §2

[4] = biological target: T4, LILRB5 expressed on 293T cells (UniProt O75023 24-590, limits assumed); assay: flow cytometry on 293T cells transiently expressing LILRB5, APC anti-human Fc; gMFI as fold to IgG staining
T4 construct: whole, on cells; GFP-tagged, transient
Description: as §1, §2

[5] = biological target: T5, LILRA3 expressed on 293T cells (UniProt Q8N6C8 24-439, limits assumed); assay: flow cytometry on 293T cells transiently expressing LILRA3, APC anti-human Fc; gMFI as fold to IgG staining
T5 construct: whole, on cells; GFP-tagged, transient
Description: as §1, §2

[6] = biological target: T6, LILRB4 expressed on 293T cells (UniProt Q8NHJ6 22-448, limits assumed); assay: flow cytometry on 293T cells transiently expressing LILRB4, APC anti-human Fc; gMFI as fold to IgG staining
T6 construct: whole, on cells; GFP-tagged, transient
Description: as §1, §2

[7] = biological target: T7, human LILRB2 expressed on cells (human, UniProt Q8N423 22-597); assay: flow cytometry on 293T cells transiently expressing LILRB2, APC anti-human Fc; gMFI as fold to IgG staining
T7 construct: In 293T cells it was expressed from pCMV3-LILRB2-GFP; also called CHO-LILRB2; Jurkat-LILRB2
Description: as §1, §2

[8] = biological target: T2, human LILRB1 expressed on cells; assay: flow cytometry, CHO-LILRB1 cells; remark: listed apart in the source
Description: (§5) 50 μL CHO-LILRB1 or CHO-LILRB2 cells (4×10⁴ cells) were added to each well in a 96-well U-bottom plate. […] After an incubation at room temperature for 30 minutes, the plate was centrifuged, and cells were washed with PBS 3 times. […] After mixing for 30 minutes at room temperature, cells were washed with PBS twice.

[9] = biological target: T8, LILRA4 expressed on 293T cells (UniProt P59901 24-499, limits assumed); assay: flow cytometry on 293T cells transiently expressing LILRA4, APC anti-human Fc; gMFI as fold to IgG staining
T8 construct: whole, on cells; GFP-tagged, transient
Description: as §1, §2

[10] = biological target: T2, human LILRB1 expressed on cells; assay: flow cytometry, CHO-LILRB1 cells; remark: listed apart in the source
Description: IgG1 is an isotype control (IgG).
as §3, §4

[11] = biological target: T9, LILRA2 expressed on 293T cells (UniProt Q8N149 24-483, limits assumed); assay: flow cytometry on 293T cells transiently expressing LILRA2, APC anti-human Fc; gMFI as fold to IgG staining
T9 construct: whole, on cells; GFP-tagged, transient
Description: as §1, §2

[12] = biological target: T10, LILRB3 expressed on cells (human, UniProt O75022 24-631); assay: flow cytometry on 293T cells transiently expressing LILRB3, APC anti-human Fc; gMFI as fold to IgG staining
T10 construct: whole, on cells; Expressed with a GFP tag from the bought plasmid; also called human LILRB3; CHO-LILRB3
Description: as §1, §2

[13] = biological target: T11, LILRA1 expressed on cells (human, UniProt O75019 17-489); assay: flow cytometry on 293T cells transiently expressing LILRA1, APC anti-human Fc; gMFI as fold to IgG staining
T11 construct: whole, on cells; GFP-tagged; also called human LILRA1; CHO-LILRA1

[14] = biological target: T2, human LILRB1 expressed on cells; assay: flow cytometry, CHO-LILRB1 cells; blocked ligand: APC HLA-G trimer tetramer
Description: as §5

T2 sequence (Q8NHL6 other isoform, or with tags, fused parts or gaps limits assumed): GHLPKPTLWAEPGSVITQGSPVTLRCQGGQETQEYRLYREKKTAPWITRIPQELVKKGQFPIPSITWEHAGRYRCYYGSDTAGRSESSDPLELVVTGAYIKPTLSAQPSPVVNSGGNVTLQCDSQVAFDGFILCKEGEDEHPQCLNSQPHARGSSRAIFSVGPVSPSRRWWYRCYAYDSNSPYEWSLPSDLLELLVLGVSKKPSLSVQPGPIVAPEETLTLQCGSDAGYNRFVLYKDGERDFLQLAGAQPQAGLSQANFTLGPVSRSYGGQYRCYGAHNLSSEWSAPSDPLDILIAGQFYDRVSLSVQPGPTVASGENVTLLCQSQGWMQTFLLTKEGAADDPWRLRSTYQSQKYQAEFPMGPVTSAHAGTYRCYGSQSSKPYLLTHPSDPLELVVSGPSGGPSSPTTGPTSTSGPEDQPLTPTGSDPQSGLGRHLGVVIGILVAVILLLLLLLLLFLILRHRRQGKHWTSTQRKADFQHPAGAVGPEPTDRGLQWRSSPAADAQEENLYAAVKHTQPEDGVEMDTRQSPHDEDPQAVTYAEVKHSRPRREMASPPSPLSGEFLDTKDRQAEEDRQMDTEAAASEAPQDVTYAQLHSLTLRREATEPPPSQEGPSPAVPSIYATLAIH
T3 sequence (A6NI73 42-299 limits assumed): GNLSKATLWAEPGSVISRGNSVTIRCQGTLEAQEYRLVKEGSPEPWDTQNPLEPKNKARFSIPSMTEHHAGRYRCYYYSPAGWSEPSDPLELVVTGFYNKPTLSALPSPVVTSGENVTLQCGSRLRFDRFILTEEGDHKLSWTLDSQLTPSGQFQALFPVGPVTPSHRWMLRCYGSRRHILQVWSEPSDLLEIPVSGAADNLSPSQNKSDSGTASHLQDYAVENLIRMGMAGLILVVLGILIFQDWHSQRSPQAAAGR
T5 sequence (Q8N6C8 24-439 limits assumed): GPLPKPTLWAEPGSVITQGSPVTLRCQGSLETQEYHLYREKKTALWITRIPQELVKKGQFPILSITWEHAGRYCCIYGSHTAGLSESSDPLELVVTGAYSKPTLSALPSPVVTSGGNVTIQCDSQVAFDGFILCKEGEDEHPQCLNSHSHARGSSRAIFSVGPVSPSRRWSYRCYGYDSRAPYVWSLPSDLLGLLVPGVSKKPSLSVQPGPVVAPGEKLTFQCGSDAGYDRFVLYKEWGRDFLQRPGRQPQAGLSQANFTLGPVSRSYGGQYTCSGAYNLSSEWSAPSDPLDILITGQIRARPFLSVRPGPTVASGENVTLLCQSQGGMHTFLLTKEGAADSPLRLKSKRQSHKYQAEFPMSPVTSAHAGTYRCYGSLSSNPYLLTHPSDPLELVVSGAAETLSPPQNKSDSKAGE
T9 sequence (Q8N149 24-483 limits assumed): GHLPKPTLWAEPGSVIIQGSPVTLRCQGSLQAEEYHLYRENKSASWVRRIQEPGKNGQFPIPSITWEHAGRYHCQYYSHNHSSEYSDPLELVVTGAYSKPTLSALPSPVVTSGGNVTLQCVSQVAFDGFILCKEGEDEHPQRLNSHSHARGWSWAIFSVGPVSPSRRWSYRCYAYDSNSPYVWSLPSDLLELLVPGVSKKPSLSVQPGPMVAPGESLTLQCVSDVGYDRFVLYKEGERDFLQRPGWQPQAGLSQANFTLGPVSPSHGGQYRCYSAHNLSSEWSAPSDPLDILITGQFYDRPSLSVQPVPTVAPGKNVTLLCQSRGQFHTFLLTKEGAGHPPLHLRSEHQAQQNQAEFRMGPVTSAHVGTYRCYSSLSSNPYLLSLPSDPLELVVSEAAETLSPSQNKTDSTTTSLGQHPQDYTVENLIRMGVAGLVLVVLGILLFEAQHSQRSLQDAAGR
T4 sequence (O75023 24-590 limits assumed): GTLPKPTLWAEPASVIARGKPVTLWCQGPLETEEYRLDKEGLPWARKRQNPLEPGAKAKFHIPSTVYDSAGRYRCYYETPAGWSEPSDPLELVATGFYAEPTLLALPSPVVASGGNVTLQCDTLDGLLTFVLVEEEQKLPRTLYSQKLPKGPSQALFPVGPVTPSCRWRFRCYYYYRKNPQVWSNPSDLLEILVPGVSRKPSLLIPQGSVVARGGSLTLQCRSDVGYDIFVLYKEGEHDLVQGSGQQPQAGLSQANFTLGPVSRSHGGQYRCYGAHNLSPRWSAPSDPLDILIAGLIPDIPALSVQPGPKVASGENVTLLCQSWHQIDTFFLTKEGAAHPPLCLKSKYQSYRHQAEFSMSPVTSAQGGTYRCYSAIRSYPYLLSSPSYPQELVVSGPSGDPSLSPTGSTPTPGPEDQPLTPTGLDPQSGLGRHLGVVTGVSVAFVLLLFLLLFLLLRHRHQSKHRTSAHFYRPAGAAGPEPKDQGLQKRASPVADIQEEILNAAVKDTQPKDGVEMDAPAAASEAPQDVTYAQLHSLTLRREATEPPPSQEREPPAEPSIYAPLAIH
T11 sequence (O75019 17-489): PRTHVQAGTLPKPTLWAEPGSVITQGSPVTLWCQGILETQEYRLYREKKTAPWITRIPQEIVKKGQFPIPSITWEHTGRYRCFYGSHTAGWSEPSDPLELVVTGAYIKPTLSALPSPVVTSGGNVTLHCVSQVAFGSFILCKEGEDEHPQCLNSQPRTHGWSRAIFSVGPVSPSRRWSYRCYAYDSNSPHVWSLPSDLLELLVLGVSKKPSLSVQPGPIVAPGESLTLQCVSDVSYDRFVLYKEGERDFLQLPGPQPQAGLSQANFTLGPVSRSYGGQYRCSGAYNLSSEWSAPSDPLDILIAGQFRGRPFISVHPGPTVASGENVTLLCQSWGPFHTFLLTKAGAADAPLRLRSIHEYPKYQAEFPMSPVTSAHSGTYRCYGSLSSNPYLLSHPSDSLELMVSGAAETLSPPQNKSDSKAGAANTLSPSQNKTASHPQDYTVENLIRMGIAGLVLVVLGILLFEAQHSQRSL
T7 sequence (Q8N423 other isoform, or with tags, fused parts or gaps limits assumed): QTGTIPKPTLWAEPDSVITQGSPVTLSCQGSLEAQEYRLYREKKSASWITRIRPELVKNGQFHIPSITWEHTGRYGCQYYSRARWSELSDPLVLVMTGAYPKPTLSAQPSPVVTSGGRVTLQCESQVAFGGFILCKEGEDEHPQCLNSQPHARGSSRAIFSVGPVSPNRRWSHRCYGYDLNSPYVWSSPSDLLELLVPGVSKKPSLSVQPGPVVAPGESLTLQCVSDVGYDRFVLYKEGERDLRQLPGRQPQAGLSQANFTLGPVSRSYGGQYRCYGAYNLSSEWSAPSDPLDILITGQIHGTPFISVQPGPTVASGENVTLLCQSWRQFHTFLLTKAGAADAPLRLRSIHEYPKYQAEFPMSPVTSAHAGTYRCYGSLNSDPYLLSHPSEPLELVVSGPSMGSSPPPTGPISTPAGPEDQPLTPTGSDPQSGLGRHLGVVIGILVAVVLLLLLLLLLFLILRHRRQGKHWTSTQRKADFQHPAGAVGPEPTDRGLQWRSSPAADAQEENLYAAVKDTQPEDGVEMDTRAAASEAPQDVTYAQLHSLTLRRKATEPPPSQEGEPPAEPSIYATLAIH
T8 sequence (P59901 24-499 limits assumed): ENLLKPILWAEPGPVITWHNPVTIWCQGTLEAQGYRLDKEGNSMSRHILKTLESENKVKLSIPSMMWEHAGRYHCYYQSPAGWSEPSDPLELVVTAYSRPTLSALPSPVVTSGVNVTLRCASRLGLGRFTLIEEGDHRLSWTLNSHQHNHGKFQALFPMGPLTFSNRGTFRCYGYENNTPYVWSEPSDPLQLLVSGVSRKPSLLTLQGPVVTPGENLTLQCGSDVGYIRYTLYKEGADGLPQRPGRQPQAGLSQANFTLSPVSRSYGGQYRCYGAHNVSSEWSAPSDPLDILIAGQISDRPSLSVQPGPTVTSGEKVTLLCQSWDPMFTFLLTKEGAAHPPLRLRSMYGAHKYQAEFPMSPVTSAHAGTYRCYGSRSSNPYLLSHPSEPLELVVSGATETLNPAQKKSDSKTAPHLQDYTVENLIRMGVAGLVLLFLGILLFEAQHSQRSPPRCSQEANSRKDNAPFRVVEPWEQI
T1 sequence (Q6PI73 24-481): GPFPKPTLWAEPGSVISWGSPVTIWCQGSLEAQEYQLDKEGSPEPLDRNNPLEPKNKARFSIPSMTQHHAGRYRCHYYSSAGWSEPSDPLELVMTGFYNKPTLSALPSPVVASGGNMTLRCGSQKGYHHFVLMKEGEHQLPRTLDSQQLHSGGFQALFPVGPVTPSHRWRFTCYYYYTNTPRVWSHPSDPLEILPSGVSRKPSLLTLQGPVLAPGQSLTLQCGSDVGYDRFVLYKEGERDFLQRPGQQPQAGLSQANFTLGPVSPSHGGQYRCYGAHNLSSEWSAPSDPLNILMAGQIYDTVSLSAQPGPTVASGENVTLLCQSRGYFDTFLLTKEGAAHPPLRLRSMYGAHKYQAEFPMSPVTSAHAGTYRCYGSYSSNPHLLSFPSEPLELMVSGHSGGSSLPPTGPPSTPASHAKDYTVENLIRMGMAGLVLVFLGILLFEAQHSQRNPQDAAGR

B1: Anti-LILRB1 antibody 3C1 (antibody, human IgG4 S228P, lambda, V domains shown)
VH: EVQLVESGGGLVQPGGSLRLSCAASGFTFSDYDMHWVRQATGKGLEWVATIDTAGDTYYPDSVRGRFTISRENAKNSLSLQMNSLRAGDTAVYFCARDVPGTGFDHWGQGTLVTVSS
VL: SSELTQDPAVSVALGQTVRITCQGDSLRSYYESWYQQKPGQAPVLVIYGKNNRPSGIPDRFSGSISGNTASLTITGTQAEDEADYYCNSRDNSGDHWVFGGGTRLTVLG
For B1, the binding result [1] was “no binding (tested: 5 µg/mL)”, the EC50 [2] was 0.016 µg/mL and the “gMFI (max)” value [2] was 23000. B1: no binding (tested: 5 µg/mL) [3]; no binding (tested: 5 µg/mL) [4]; no binding (tested: 5 µg/mL) [5]. The binding result [6] was “no binding (tested: 5 µg/mL)”, the binding result [7] was “no binding (tested: 5 µg/mL)” and the EC50 [8] was 0.033 µg/mL. The binding result [9] was “no binding (tested: 5 µg/mL)”, the “EC50 (read off the curve)” value [10] was about 0.02 µg/mL and the binding result [11] was “no binding (tested: 5 µg/mL)”. For the same binder, the binding result [12] was “no binding (tested: 5 µg/mL)”, the binding result [13] was “no binding (tested: 5 µg/mL)” and the IC50 [14] was 0.012 µg/mL.
